Legend:
Conditions in all cases: protein: recombinant; chain copies: 2; label: 5'-32P
Fis T75A [1] = target: T1, Fis T75A (UniProt P0A6R3 1-98, T75A); assay: EMSA; error as printed; EMSA: 20 mM Hepes pH 7.5, 0.15 M NaCl, 5% glycerol, 0.5 mg/ml BSA, 1 mM EDTA, 1 mM DTT, 0.1 nM 32P 27 bp probe, 50 ug/ml poly dI/dC; temperature not stated
Fis N73A = Fis N73A (UniProt P0A6R3 1-98, N73A); assay: EMSA; EMSA: 20 mM Hepes pH 7.5, 0.15 M NaCl, 5% glycerol, 0.5 mg/ml BSA, 1 mM EDTA, 1 mM DTT, 0.1 nM 32P 27 bp probe, 50 ug/ml poly dI/dC; temperature not stated
Sequence of Fis N73A (P0A6R3 whole entry N73A): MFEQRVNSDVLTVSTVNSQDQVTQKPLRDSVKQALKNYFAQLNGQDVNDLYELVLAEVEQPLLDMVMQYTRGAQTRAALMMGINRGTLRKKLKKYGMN

Fis R71A = Fis R71A (UniProt P0A6R3 1-98, R71A); assay: as above
Sequence of Fis R71A (P0A6R3 whole entry R71A): as the sequence (P0A6R3 whole entry N73A) above, with R71A, A73N counted along it

Fis WT [2] = target: T2, Fis WT (UniProt P0A6R3 1-98); assay: EMSA; t1/2 41 min; Table 3 gives error 0.05; EMSA: 20 mM Hepes pH 7.5, 0.15 M NaCl, 5% glycerol, 0.5 mg/ml BSA, 1 mM EDTA, 1 mM DTT, 0.1 nM 32P 27 bp probe, 50 ug/ml poly dI/dC; temperature not stated
T2 sequence (P0A6R3 whole entry): as the sequence (P0A6R3 whole entry N73A) above, with A73N counted along it

Fis WT [3] = target: T2, Fis WT; assay: EMSA; EMSA: 20 mM Hepes pH 7.5, 0.15 M NaCl, 5% glycerol, 0.5 mg/ml BSA, 1 mM EDTA, 1 mM DTT, 0.1 nM 32P 27 bp probe, 50 ug/ml poly dI/dC; temperature not stated
Fis WT [4] = target: T2, Fis WT; assay: EMSA; fold printed as 6; EMSA: 20 mM Hepes pH 7.5, 0.15 M NaCl, 5% glycerol, 0.5 mg/ml BSA, 1 mM EDTA, 1 mM DTT, 0.1 nM 32P 27 bp probe, 50 ug/ml poly dI/dC; temperature not stated
Fis WT [5] = target: T2, Fis WT; assay: EMSA; t1/2 8 min; EMSA: 20 mM Hepes pH 7.5, 0.15 M NaCl, 5% glycerol, 0.5 mg/ml BSA, 1 mM EDTA, 1 mM DTT, 0.1 nM 32P 27 bp probe, 50 ug/ml poly dI/dC; temperature not stated
Fis WT [6] = target: T2, Fis WT; assay: EMSA; t1/2 <0.25 min; EMSA: 20 mM Hepes pH 7.5, 0.15 M NaCl, 5% glycerol, 0.5 mg/ml BSA, 1 mM EDTA, 1 mM DTT, 0.1 nM 32P 27 bp probe, 50 ug/ml poly dI/dC; temperature not stated
Fis WT [7] = target: T2, Fis WT; assay: EMSA; t1/2 4 min; EMSA: 20 mM Hepes pH 7.5, 0.15 M NaCl, 5% glycerol, 0.5 mg/ml BSA, 1 mM EDTA, 1 mM DTT, 0.1 nM 32P 27 bp probe, 50 ug/ml poly dI/dC; temperature not stated
Fis WT [8] = target: T2, Fis WT; assay: EMSA; t1/2 14 min; EMSA: 20 mM Hepes pH 7.5, 0.15 M NaCl, 5% glycerol, 0.5 mg/ml BSA, 1 mM EDTA, 1 mM DTT, 0.1 nM 32P 27 bp probe, 50 ug/ml poly dI/dC; temperature not stated
Fis T75A [9] = target: T1, Fis T75A; assay: EMSA; EMSA: 20 mM Hepes pH 7.5, 0.15 M NaCl, 5% glycerol, 0.5 mg/ml BSA, 1 mM EDTA, 1 mM DTT, 0.1 nM 32P 27 bp probe, 50 ug/ml poly dI/dC; temperature not stated
Fis WT [10] = target: T2, Fis WT; assay: X-ray crystallography; 2.8 A; EMSA: 20 mM Hepes pH 7.5, 0.15 M NaCl, 5% glycerol, 0.5 mg/ml BSA, 1 mM EDTA, 1 mM DTT, 0.1 nM 32P 27 bp probe, 50 ug/ml poly dI/dC; temperature not stated
Fis WT [11] = target: T2, Fis WT; assay: X-ray crystallography; EMSA: 20 mM Hepes pH 7.5, 0.15 M NaCl, 5% glycerol, 0.5 mg/ml BSA, 1 mM EDTA, 1 mM DTT, 0.1 nM 32P 27 bp probe, 50 ug/ml poly dI/dC; temperature not stated
Fis WT [12] = target: T2, Fis WT; assay: EMSA; t1/2 4 min; EMSA: 20 mM Hepes pH 7.5, 0.15 M NaCl, 5% glycerol, 0.5 mg/ml BSA, 1 mM EDTA, 1 mM DTT, 0.1 nM 32P 27 bp probe, 50 ug/ml poly dI/dC; temperature not stated; remark: listed apart in the source
Fis WT [13] = target: T2, Fis WT; assay: EMSA; t1/2 22 min; EMSA: 20 mM Hepes pH 7.5, 0.15 M NaCl, 5% glycerol, 0.5 mg/ml BSA, 1 mM EDTA, 1 mM DTT, 0.1 nM 32P 27 bp probe, 50 ug/ml poly dI/dC; temperature not stated
Fis WT [14] = target: T2, Fis WT; assay: EMSA; affinity as F1, lifetime increased; EMSA: 20 mM Hepes pH 7.5, 0.15 M NaCl, 5% glycerol, 0.5 mg/ml BSA, 1 mM EDTA, 1 mM DTT, 0.1 nM 32P 27 bp probe, 50 ug/ml poly dI/dC; temperature not stated
Fis WT [15] = target: T2, Fis WT; assay: X-ray crystallography; 2.7 A; EMSA: 20 mM Hepes pH 7.5, 0.15 M NaCl, 5% glycerol, 0.5 mg/ml BSA, 1 mM EDTA, 1 mM DTT, 0.1 nM 32P 27 bp probe, 50 ug/ml poly dI/dC; temperature not stated
Fis WT [16] = target: T2, Fis WT; assay: X-ray crystallography; 2.9 A, C2; EMSA: 20 mM Hepes pH 7.5, 0.15 M NaCl, 5% glycerol, 0.5 mg/ml BSA, 1 mM EDTA, 1 mM DTT, 0.1 nM 32P 27 bp probe, 50 ug/ml poly dI/dC; temperature not stated
Fis WT [17] = target: T2, Fis WT; assay: X-ray crystallography; 3.5 A, partially refined; EMSA: 20 mM Hepes pH 7.5, 0.15 M NaCl, 5% glycerol, 0.5 mg/ml BSA, 1 mM EDTA, 1 mM DTT, 0.1 nM 32P 27 bp probe, 50 ug/ml poly dI/dC; temperature not stated

T1 sequence (P0A6R3 whole entry T75A): as the sequence (P0A6R3 whole entry N73A) above, with A73N, T75A counted along it

B1: F1 (±8T) (dsDNA)
DNA 1: AAATTTGTTTGAATTTTGAGCAAATTT
DNA 2: AAATTTGCTCAAAATTCAAACAAATTT
Kd (Fis T75A [1]): 0.3 ± 0.8 nM | Kd (Fis N73A): 29 ± 0.2 nM | Kd (Fis R71A): 0.5 ± 0.2 nM | Kd (Fis WT [2]): 0.2 ± 0.07 nM

B2: F14 (dsDNA)
DNA 1: GGGTTTGTTTGAATTTTGAGCAAACCC
DNA 2: GGGTTTGCTCAAAATTCAAACAAACCC
Kd (Fis WT [3]): 0.5 ± 0.1 nM

B3: F15 (dsDNA)
DNA 1: CCCTTTGTTTGAATTTTGAGCAAAGGG
DNA 2: CCCTTTGCTCAAAATTCAAACAAAGGG
Kd (Fis WT [3]): 0.4 ± 0.2 nM

B4: F16 (dsDNA)
DNA 1: GCGGTTGTTTGAATTTTGAGCAACCGC
DNA 2: GCGGTTGCTCAAAATTCAAACAACCGC
Kd (Fis WT [3]): 0.5 ± 0.2 nM

B5: F33 (dsDNA)
DNA 1: AAAGGTGTTTGAATTTTGAGCACCTTT
DNA 2: AAAGGTGCTCAAAATTCAAACACCTTT
Kd (Fis WT [4]): 0.6 ± 0.1 nM

B6: F34 (dsDNA)
DNA 1: AAGCTTGTTTGAATTTTGAGCAACGTT
DNA 2: AACGTTGCTCAAAATTCAAACAAGCTT
Kd (Fis WT [5]): 0.2 ± 0.1 nM

B7: INV (dsDNA)
DNA 1: TTTAAAGTTTGAATTTTGAGCTTTAAA
DNA 2: TTTAAAGCTCAAAATTCAAACTTTAAA
Kd (Fis WT [6]): 33 ± 3 nM

B8: INV±8G (dsDNA)
DNA 1: TTTAAGGTTTGAATTTTGAGCCTTAAA
DNA 2: TTTAAGGCTCAAAATTCAAACCTTAAA
Kd (Fis WT [3]): 250 ± 20 nM

B9: INV±8C (dsDNA)
DNA 1: TTTAACGTTTGAATTTTGAGCGTTAAA
DNA 2: TTTAACGCTCAAAATTCAAACGTTAAA
Kd (Fis WT [3]): 6 ± 2 nM

B10: INV±8T (dsDNA)
DNA 1: TTTAATGTTTGAATTTTGAGCATTAAA
DNA 2: TTTAATGCTCAAAATTCAAACATTAAA
Kd (Fis WT [7]): 2.3 ± 0.7 nM

B11: INV-CAT (dsDNA)
DNA 1: TTTCATGTTTGAATTTTGAGCATGAAA
DNA 2: TTTCATGCTCAAAATTCAAACATGAAA
Kd (Fis WT [3]): 2.9 ± 1 nM

B12: F1±8C (dsDNA)
DNA 1: AAATTCGTTTGAATTTTGAGCGAATTT
DNA 2: AAATTCGCTCAAAATTCAAACGAATTT
Kd (Fis WT [8]): 0.7 ± 0.2 nM

B13: INV-GAT (dsDNA)
DNA 1: TTTGATGTTTGAATTTTGAGCATCAAA
DNA 2: TTTGATGCTCAAAATTCAAACATCAAA
Kd (Fis WT [3]): 2 ± 0.6 nM

B14: INV±9-10T (dsDNA)
DNA 1: TTTATTGTTTGAATTTTGAGCAATAAA
DNA 2: TTTATTGCTCAAAATTCAAACAATAAA
Kd (Fis WT [3]): 0.4 ± 0.1 nM

B15: F27 (dsDNA)
DNA 1: AAATTTGTTTGAACTTTGAGCAAATTT
DNA 2: AAATTTGCTCAAAGTTCAAACAAATTT
Kd (Fis T75A [9]): 3.5 ± 0.9 nM | Kd (Fis WT [3]): 0.2 ± 0.1 nM | Kd (Fis R71A): 2.8 ± 0.5 nM

B16: F28 (dsDNA)
DNA 1: AAATTTGTTTGAGCGTTGAGCAAATTT
DNA 2: AAATTTGCTCAACGCTCAAACAAATTT
Kd (Fis R71A): 470 ± 100 nM

B17: F32 (dsDNA)
DNA 1: AAATTTGGAGGAATTTTCTCCAAATTT
DNA 2: AAATTTGGAGAAAATTCCTCCAAATTT
Kd (Fis T75A [9]): 76 ± 10 nM | Kd (Fis R71A): 73 ± 11 nM | binding result (Fis WT [10]): binds

B18: F1±8G (dsDNA)
DNA 1: AAATTGGTTTGAATTTTGAGCCAATTT
DNA 2: AAATTGGCTCAAAATTCAAACCAATTT
binding result (Fis WT [11]): binds | Kd (Fis T75A [9]): 48 ± 5 nM | Kd (Fis R71A): 450 ± 20 nM

B19: F18 (dsDNA)
DNA 1: AAATTTGTTGGAATTTTCAGCAAATTT
DNA 2: AAATTTGCTGAAAATTCCAACAAATTT
binding signal (Fis WT [12]): 10 fold weaker than F1

B20: F1±9A (dsDNA)
DNA 1: AAATATGTTTGAATTTTGAGCATATTT
DNA 2: AAATATGCTCAAAATTCAAACATATTT
Kd (Fis WT [13]): 0.5 ± 0.2 nM

B21: F1±8U (dsDNA)
DNA 1: AAATTUGTTTGAATTTTGAGCAAATTT
DNA 2: AAATTUGCTCAAAATTCAAACAAATTT
modifications: deoxyuridine for T at ±8 in DNA
binding result (Fis WT [14]): binds

B22: F1±8A (dsDNA)
DNA 1: AAATTAGTTTGAATTTTGAGCTAATTT
DNA 2: AAATTAGCTCAAAATTCAAACTAATTT
binding result (Fis WT [11]): binds

B23: F31 (dsDNA)
DNA 1: AAATTTGTAGGAATTTTCTGCAAATTT
DNA 2: AAATTTGCAGAAAATTCCTACAAATTT
binding result (Fis WT [15]): binds

B24: F35 (dsDNA)
DNA 1: AAATTAGTTTGAATCTCGAGCTAATTT
DNA 2: AAATTAGCTCGAGATTCAAACTAATTT
binding result (Fis WT [16]): binds

B25: F36 (dsDNA)
DNA 1: AAATTTGTTTGAATCTCGAGCAAATTT
DNA 2: AAATTTGCTCGAGATTCAAACAAATTT
binding result (Fis WT [17]): binds

— article PMC4784862, “DNA Sequence Determinants Controlling Affinity, Stability and Shape of DNA Complexes Bound by the Nucleoid Protein Fis”
